T1: GST-Msn2(401-704) (Saccharomyces cerevisiae, UniProt P33748 401-704)
T1 sequence: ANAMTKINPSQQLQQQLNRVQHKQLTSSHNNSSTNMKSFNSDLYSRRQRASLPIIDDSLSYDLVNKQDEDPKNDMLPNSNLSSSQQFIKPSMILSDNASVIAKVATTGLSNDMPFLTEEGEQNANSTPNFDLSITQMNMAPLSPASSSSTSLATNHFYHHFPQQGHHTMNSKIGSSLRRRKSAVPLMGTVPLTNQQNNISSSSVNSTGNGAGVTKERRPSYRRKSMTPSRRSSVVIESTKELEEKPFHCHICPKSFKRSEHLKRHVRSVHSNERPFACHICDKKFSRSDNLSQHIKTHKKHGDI

B1: STRE I (dsDNA)
DNA 1: GGAACTCGCGCAGGGGGAAGACATA
DNA 2: TATGTCTTCCCCCTGCGCGAGTTCC
B2: STRE II (dsDNA)
DNA 1: GTATTTTCCTCCCCCTAGCTTCAAC
DNA 2: GTTGAAGCTAGGGGGAGGAAAATAC

Target: T1, GST-Msn2(401-704)
Test: EMSA; 100 ng protein, 32P-end-labeled ds oligos, 4% nondenaturing polyacrylamide gel; buffer, salt, pH and temperature not given (as previously described, ref 64)
Details: protein: recombinant; tags: N-terminal GST (pGEX4T-1); label: 32P end label; blunt

| Binder | binding result |
| --- | --- |
| B1 | binds |
| B2 | binds |

From PMC5496861, “Yeast Cip1 is activated by environmental stress to inhibit Cdk1–G1 cyclins via Mcm1 and Msn2/4”
